From patent publication US10087225B2, “Formulation of MK2 inhibitor peptides” (MOERAE MATRIX, INC., priority 2015, dated 2018) come the findings set out here.

Assay in all cases: Kinase Profiling Assay
Type in all cases: biochemical
Conditions in all cases: for % activity: 100 μM

Test [1] has as its target CK2(h) (Homo sapiens, UniProt P68400).
The target in test [2] is T1, DRAK1(h) (Homo sapiens, UniProt Q9UEE5).
T1 sequence (Q9UEE5 1-414): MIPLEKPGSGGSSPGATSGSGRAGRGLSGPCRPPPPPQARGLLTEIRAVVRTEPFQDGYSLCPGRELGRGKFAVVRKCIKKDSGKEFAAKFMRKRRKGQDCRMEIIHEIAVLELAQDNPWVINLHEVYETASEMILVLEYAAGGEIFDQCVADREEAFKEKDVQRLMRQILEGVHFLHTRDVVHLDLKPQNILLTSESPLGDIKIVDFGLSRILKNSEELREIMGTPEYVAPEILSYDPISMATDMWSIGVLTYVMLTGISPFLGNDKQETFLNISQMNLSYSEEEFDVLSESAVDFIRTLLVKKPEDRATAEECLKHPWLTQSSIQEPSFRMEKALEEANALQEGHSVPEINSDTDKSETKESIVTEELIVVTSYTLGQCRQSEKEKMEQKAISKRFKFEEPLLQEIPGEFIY

For test [3], the target named is PRK2(h) (Homo sapiens, UniProt Q16513).
Chain of PRK2(h) (Q16513 whole entry): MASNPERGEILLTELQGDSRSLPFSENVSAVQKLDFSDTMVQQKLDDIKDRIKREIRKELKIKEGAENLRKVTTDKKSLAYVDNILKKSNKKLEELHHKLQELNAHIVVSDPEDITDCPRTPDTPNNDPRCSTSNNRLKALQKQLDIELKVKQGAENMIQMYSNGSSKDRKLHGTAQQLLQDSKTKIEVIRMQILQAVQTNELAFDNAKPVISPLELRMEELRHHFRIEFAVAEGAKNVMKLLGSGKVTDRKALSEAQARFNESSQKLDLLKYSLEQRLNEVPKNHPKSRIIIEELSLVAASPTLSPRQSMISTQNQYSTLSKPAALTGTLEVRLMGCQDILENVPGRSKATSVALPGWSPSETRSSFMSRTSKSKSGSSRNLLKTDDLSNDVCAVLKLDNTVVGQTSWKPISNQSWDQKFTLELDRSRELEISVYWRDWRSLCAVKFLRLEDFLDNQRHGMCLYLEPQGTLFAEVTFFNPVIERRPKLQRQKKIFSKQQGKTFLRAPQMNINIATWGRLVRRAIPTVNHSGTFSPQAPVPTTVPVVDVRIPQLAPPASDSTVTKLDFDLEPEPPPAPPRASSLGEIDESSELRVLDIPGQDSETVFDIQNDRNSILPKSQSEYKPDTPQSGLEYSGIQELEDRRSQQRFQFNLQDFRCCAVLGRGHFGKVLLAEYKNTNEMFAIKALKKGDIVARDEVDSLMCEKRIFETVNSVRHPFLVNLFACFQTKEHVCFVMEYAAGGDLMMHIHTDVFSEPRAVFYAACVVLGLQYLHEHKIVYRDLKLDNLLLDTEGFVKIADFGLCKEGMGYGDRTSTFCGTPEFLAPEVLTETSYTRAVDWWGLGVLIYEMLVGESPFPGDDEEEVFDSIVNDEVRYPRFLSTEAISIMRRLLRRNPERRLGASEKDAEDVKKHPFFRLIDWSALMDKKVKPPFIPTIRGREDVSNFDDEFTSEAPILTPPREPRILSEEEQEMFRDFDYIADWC
Test [4] concerns the target PASK(h) (Homo sapiens, UniProt Q96RG2).
Test [5] concerns the target MELK(h) (Homo sapiens, UniProt Q14680).
Test [6] deals with T2, ZAP-70(h) (Homo sapiens, UniProt P43403).
T2 sequence (P43403 1-619): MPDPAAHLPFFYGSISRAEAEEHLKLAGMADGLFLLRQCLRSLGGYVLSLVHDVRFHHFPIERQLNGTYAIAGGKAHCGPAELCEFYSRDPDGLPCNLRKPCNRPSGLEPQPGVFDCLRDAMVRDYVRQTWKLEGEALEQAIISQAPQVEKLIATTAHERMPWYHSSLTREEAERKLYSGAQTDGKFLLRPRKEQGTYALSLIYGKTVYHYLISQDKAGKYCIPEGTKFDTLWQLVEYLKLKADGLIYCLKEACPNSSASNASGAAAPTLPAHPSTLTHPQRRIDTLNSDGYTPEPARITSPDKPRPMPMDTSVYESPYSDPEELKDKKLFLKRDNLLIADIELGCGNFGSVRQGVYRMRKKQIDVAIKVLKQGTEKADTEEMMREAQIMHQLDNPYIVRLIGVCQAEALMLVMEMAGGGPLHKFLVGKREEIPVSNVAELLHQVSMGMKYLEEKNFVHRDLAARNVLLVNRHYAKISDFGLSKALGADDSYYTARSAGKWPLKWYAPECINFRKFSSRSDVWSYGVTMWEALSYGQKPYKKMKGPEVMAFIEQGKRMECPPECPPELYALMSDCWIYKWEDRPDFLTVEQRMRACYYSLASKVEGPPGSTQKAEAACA

The target of test [7] is CLK3(h) (Homo sapiens, UniProt P49761).
Chain of CLK3(h) (P49761 whole entry): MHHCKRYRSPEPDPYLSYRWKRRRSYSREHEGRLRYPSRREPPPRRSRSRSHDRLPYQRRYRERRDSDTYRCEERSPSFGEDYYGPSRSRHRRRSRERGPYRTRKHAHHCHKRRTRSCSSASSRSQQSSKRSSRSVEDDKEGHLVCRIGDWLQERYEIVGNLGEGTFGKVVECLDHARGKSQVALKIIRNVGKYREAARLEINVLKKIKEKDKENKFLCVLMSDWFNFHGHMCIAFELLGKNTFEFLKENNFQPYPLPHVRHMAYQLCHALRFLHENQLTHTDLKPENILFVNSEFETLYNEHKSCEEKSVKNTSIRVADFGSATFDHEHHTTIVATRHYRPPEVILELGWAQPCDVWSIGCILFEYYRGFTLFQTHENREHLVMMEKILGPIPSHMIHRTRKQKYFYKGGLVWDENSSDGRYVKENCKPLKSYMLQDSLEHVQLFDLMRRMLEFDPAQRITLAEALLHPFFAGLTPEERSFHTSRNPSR
Test [8] concerns the target T3, TSSK1(h) (Homo sapiens, UniProt Q9BXA7).
T3 sequence (Q9BXA7 1-367): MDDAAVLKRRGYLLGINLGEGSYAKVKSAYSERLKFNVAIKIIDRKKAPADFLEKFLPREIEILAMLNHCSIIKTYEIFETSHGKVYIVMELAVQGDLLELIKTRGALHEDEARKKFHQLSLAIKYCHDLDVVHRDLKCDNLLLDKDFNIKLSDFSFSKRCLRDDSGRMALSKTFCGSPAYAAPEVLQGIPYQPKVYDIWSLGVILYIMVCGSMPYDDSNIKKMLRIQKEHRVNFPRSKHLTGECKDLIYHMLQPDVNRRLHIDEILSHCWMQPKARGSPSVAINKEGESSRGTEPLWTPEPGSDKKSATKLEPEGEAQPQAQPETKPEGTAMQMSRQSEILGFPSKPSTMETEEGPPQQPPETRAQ

Test [9] concerns the target MSSK1(h) (Homo sapiens, UniProt Q9UPE1).
For test [10], the target named is SRPK2(h) (Homo sapiens, UniProt P78362).
Chain of SRPK2(h) (P78362 whole entry): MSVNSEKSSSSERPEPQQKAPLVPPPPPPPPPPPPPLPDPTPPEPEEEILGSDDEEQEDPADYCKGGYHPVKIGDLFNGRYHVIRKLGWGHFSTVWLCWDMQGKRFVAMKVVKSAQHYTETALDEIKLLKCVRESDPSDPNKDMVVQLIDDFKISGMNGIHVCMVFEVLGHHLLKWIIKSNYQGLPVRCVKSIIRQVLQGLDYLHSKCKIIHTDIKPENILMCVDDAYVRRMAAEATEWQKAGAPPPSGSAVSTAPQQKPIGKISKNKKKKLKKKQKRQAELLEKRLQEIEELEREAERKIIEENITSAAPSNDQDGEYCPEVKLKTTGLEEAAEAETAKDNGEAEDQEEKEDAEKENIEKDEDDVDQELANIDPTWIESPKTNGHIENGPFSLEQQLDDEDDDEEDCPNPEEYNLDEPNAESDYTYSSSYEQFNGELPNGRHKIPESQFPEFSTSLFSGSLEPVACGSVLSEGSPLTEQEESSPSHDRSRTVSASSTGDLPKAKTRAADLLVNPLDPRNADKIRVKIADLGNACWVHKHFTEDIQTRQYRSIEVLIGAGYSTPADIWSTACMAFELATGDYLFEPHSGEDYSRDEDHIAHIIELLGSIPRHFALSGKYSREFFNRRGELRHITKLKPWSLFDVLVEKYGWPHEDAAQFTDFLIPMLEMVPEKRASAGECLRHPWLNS
Test [11] addresses MLK1(h) (Homo sapiens, UniProt P80192).
Test [12] has as its target CHK2(I157T)(h) (Homo sapiens, UniProt O96017, I157T).
For test [13], the target named is T4, PKCτ(h) (Homo sapiens, UniProt P41743).
T4 sequence (P41743 1-596): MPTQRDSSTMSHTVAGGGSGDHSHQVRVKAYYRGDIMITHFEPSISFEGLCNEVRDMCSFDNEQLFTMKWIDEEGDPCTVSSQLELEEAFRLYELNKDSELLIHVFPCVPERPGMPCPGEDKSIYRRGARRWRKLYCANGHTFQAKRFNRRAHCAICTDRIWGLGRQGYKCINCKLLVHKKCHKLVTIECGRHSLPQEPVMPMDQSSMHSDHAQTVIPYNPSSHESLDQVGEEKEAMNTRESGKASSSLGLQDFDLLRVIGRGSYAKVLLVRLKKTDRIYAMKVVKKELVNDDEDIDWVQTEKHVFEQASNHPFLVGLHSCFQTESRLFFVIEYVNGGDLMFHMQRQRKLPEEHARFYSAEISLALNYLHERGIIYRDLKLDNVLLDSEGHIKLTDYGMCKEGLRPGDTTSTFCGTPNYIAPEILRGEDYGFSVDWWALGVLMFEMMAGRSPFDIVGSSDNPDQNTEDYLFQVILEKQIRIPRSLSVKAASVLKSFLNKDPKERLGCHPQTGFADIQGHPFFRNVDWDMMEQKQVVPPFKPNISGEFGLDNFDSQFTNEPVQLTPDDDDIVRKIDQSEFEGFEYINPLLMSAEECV

Chain of MSSK1(h) (Q9UPE1 whole entry): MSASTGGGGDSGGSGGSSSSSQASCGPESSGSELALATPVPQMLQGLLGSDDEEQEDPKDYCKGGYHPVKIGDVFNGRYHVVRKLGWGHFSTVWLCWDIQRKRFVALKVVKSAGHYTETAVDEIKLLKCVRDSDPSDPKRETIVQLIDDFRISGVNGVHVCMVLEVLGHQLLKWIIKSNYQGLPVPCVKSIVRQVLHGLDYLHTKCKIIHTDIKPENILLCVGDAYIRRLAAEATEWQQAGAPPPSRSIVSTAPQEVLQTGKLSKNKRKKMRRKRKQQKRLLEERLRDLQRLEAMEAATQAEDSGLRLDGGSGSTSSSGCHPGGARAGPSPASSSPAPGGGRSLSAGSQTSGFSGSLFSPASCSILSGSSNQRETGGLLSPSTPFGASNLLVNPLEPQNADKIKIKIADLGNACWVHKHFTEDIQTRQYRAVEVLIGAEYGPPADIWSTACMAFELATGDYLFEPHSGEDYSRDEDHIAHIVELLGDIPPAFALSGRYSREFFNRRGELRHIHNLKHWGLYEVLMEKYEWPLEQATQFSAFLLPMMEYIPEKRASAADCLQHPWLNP
Chain of CHK2(I157T)(h) (O96017 whole entry I157T): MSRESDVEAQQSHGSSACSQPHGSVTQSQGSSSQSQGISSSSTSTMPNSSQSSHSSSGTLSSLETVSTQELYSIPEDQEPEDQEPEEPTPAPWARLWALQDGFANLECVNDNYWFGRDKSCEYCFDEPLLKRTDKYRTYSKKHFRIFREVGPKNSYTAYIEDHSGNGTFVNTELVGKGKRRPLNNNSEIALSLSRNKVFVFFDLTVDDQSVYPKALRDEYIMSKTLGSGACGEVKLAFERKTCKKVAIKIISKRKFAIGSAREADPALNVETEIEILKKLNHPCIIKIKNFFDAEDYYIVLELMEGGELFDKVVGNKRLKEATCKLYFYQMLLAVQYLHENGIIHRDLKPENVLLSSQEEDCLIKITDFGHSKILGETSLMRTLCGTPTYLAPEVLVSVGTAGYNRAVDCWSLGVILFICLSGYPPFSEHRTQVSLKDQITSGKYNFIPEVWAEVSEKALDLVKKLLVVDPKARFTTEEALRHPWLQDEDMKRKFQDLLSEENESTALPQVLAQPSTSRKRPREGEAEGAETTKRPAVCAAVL
Chain of MELK(h) (Q14680 whole entry): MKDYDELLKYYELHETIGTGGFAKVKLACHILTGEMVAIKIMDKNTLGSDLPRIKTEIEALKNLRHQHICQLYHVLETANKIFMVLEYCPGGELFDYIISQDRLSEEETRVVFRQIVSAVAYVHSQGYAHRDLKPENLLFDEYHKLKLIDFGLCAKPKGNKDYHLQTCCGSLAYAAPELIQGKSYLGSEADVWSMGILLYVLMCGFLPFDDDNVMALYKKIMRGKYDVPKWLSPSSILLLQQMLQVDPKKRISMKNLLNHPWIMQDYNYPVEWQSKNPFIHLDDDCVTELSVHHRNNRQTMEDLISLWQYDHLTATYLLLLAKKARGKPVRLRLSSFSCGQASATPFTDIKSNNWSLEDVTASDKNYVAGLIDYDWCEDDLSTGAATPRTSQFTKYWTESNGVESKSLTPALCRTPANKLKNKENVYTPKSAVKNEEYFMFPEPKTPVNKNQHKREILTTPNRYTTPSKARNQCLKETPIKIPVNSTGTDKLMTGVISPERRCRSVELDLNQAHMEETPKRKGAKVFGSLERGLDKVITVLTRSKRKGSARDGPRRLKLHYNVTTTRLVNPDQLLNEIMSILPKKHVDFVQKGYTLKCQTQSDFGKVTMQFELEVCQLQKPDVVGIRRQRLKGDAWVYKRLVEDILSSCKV
Chain of CK2(h) (P68400 whole entry): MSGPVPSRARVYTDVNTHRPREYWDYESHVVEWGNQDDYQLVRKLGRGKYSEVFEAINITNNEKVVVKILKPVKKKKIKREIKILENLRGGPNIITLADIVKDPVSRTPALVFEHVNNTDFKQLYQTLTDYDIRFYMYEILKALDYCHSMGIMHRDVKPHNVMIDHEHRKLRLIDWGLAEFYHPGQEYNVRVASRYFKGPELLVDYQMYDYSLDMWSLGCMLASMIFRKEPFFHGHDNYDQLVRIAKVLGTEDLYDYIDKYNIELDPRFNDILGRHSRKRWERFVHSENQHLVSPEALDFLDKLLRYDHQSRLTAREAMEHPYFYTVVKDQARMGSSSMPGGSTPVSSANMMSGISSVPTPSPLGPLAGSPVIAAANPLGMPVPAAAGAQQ
Chain of CK2(h) (P67870 whole entry partner): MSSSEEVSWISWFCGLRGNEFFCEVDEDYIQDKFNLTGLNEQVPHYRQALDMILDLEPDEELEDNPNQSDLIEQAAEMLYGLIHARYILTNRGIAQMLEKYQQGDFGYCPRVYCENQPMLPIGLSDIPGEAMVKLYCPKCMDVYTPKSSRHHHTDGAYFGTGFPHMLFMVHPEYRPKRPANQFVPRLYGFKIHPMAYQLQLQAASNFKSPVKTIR

Take H-YARAAARQARAKALARQLGVAA-OH [MMI-0100]: the activity at 100 µM is 90% in test [1]; 47% in [2]; 72% in test [3]; 81% in [4]; 74% in test [5]; 79% in [6]. The activity at 100 µM stood at 108% in [7]; 99% in [8]; 82% in test [9]; 92% in [10]; 77% in test [11]; 97% in test [12]. Also, the activity at 100 µM in [13] worked out at 110%.
As to “HRRIKAWLKKIKALARQLGVAA (Mammalian) [MMI-0500]”, the “% activity” value came to 93% in test [1]; 8% in test [2]; 7% in test [3]; 9% in [4]; 0% in test [5]; 1% in [6]. Also, the “% activity” value in test [7] stood at 76%; in test [8], 46%; in test [9], 22%; in test [10], 80%; in test [11], 43%; in [12], 3%. Besides, the “% activity” value in test [13] worked out at 7%.
On to “YARAAARQARAKALNRQLGVA (Mammalian) [MMI-0200]”, for which the “% activity” value in test [1] amounted to 83%; in [2], 34%; in [3], 74%; in test [4] it was 60%; in test [5], 59%; in test [6], 58%. In addition, the “% activity” value in test [7] is on record as 76%; in [8] it was 98%; in test [9], 100%; in [10], 100%; in test [11], 84%; in test [12], 85%. Moreover, in [13], the “% activity” value is given as 97%.
